Measured values reported in patent publication US10314894B2, “Treatment of cardio-renal disease using PCSK6” (THE CLEVELAND CLINIC FOUNDATION, priority 2014, dated 2019).

Molecular target: T1, corin mutant R801A (Homo sapiens, UniProt Q9Y5Q5, R801A)
T1 construct: expressed in transfected cells; host or cells: HEK293
T1 sequence (Q9Y5Q5 1-1042 R801A): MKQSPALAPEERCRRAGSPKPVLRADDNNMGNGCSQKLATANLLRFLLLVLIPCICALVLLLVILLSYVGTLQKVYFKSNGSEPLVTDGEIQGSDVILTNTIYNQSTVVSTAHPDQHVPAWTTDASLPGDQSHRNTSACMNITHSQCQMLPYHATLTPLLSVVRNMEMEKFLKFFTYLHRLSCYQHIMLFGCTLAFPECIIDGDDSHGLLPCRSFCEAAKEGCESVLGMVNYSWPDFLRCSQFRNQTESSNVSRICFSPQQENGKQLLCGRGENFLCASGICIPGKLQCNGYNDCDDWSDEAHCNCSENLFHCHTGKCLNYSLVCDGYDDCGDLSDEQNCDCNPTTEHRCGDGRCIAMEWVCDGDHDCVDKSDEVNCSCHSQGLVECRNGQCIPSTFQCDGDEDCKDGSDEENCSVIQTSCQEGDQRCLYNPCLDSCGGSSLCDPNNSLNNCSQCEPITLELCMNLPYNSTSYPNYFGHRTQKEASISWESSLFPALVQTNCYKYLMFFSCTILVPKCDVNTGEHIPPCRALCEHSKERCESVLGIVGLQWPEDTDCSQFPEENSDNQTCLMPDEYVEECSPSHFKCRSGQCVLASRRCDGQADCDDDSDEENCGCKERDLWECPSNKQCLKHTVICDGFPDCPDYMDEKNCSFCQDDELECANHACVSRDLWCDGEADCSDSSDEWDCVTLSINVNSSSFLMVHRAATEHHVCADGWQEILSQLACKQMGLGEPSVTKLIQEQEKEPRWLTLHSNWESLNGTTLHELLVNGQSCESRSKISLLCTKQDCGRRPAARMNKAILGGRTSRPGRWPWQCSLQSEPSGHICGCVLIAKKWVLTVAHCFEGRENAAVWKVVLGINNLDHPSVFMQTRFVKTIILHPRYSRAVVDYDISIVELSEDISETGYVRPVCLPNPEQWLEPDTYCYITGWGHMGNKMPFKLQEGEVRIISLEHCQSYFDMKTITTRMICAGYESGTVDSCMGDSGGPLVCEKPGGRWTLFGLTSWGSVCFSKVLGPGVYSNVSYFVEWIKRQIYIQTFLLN
Experiment: Corin activation by purified PCSK6 on HEK293 cells, corin mutant R801A
Format: cell-based
Details: corin R801A mutant lacking the cleavage site, 2 h
Method: HEK293 and HL-1 cells expressing recombinant corin in 6-well plates were incubated with 1.5 mL (200 μM) of membrane impermeable Sulfo-NHS-SS-biotin for 5 min. Qi et al., J Biol Chem 286, 20963-20969 (2011). A quenching solution was added to the wells and incubated on ice for 10 min. Cells were lysed in the lysis buffer. Labeled proteins were isolated with avidin-coupled agarose beads and analyzed by Western blotting.
Stable HEK293 cells were established to produce human PCSK6 with a C-terminal flag tag. The cells were cultured in DMEM with 10% FBS and 600 μg/mL G418. At confluency, the cells were washed with PBS and cultured with Reduced-Serum Medium. After 72 h, the conditioned medium was collected, centrifuged (10 min at 17,000 g) to remove cell debris, and concentrated to ⅕ of the original volume using a Centrifugal filter unit at 4° C. The concentrated medium was incubated with anti-flag M2 affinity bead slurry in a volume ratio of 25:1 on a rotator at 4° C. for 2 h. […] After centrifugation, the supernatant containing purified PCSK6 was collected, and analyzed by SDS-PAGE followed by silver staining and Western blotting.
Stable HEK293 cells expressing human corin were cultured in 6-well plates in DMEM with 10% FBS and 2 μM monensin. […] After 2 h, cell surface proteins were labeled and corin protein was analyzed by Western blotting.

activation of corin on the cell surface by purified recombinant PCSK6: did not cleave
B1: proprotein convertase subtilisin/kexin-6 (protein, listed as Homo sapiens)
chain: MPPRAPPAPGPRPPPRAAAATDTAAGAGGAGGAGGAGGPGFRPLAPRPWRWLLLLALPAACSAPPPRPVYTNHWAVQVLGGPAEADRVAAAHGYLNLGQIGNLEDYYHFYHSKTFKRSTLSSRGPHTFLRMDPQVKWLQQQEVKRRVKRQVRSDPQALYFNDPIWSNMWYLHCGDKNSRCRSEMNVQAAWKRGYTGKNVVVTILDDGIERNHPDLAPNYDSYASYDVNGNDYDPSPRYDASNENKHGTRCAGEVAASANNSYCIVGIAYNAKIGGIRMLDGDVTDVVEAKSLGIRPNYIDIYSASWGPDDDGKTVDGPGRLAKQAFEYGIKKGRQGLGSIFVWASGNGGREGDYCSCDGYTNSIYTISVSSATENGYKPWYLEECASTLATTYSSGAFYERKIVTTDLRQRCTDGHTGTSVSAPMVAGIIALALEANSQLTWRDVQHLLVKTSRPAHLKASDWKVNGAGHKVSHFYGFGLVDAEALVVEAKKWTAVPSQHMCVAASDKRPRSIPLVQVLRTTALTSACAEHSDQRVVYLEHVVVRTSISHPRRGDLQIYLVSPSGTKSQLLAKRLLDLSNEGFTNWEFMTVHCWGEKAEGQWTLEIQDLPSQVRNPEKQGKLKEWSLILYGTAEHPYHTFSAHQSRSRMLELSAPELEPPKAALSPSQVEVPEDEEDYTAQSTPGSANILQTSVCHPECGDKGCDGPNADQCLNCVHFSLGSVKTSRKCVSVCPLGYFGDTAARRCRRCHKGCETCSSRAATQCLSCRRGFYHHQEMNTCVTLCPAGFYADESQKNCLKCHPSCKKCVDEPEKCTVCKEGFSLARGSCIPDCEPGTYFDSELIRCGECHHTCGTCVGPGREECIHCAKNFHFHDWKCVPACGEGFYPEEMPGLPHKVCRRCDENCLSCAGSSRNCSRCKTGFTQLGTSCITNHTCSNADETFCEMVKSNRLCERKLFIQFCCRTCLLAG
modifications: C-terminal FLAG tag
